This is an account of results in patent US20210171647A1 (WUXI BIOLOGICS SHANGHAI, published 2021).

Changes are numbered by the printed parent chain.

The target of assay [1] is T1, human OX40 extracellular domain (ECD) protein (human, UniProt P43489 29-214).
T1 construct: extracellular domain; also called human OX40 ECD; human OX40 protein; not shown: human Fc or His tag
T1 sequence (looked up): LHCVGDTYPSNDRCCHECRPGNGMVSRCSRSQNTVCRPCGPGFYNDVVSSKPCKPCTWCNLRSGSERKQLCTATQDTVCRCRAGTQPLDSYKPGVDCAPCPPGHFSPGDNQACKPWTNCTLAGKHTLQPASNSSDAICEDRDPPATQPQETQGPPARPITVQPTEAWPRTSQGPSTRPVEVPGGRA
Put plainly: competition ELISA: human OX40 ECD coated, antibody titrated in a mix with a constant concentration of OX40L, bound OX40L detected at OD450.

The target of assay [2] is T2, human CD40 ECD (human, UniProt P25942 21-193).
T2 construct: extracellular domain
T2 sequence (P25942 21-193): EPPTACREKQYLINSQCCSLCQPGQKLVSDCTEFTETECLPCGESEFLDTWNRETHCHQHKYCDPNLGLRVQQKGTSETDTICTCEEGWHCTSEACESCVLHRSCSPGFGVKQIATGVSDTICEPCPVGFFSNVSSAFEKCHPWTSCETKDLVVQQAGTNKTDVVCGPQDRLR
Kind of assay: ELISA on coated ECD, one antibody concentration (not given).

For assay [3], the target named is T3, human CD271 ECD (human, UniProt P08138 29-250).
T3 construct: extracellular domain
T3 sequence (looked up): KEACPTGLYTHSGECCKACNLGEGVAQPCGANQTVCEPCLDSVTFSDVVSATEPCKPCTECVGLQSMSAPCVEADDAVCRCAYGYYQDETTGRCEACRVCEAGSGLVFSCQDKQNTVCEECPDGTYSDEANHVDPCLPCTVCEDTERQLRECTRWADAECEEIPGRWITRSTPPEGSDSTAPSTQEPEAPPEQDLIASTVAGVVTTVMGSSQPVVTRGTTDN
The assay is described as above.
Method: (§1) Human OX40, CD40, 4-1BB (CD137) and CD271 ECD were coated on plates (Nunc) overnight at 4° C. After blocking and washing, testing antibodies were diluted in blocking buffer and added to the plates and incubated at room temperature for 1 h. The plates were then washed and subsequently incubated with secondary antibody goat anti-human IgG Fc-HRP (Bethyl) for 1 h. After washing, TMB substrate was added and the interaction was stopped by 2M HCl.

In assay [4] the target is T4, human 4-1BB (CD137) ECD (human, UniProt Q07011 24-186).
T4 construct: extracellular domain
T4 sequence (Q07011 24-186): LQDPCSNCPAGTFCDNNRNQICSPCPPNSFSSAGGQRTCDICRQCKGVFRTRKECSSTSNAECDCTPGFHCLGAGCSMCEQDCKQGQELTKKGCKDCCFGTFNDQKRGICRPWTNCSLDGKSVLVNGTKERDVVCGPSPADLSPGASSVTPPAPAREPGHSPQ
The assay is described as above.
Method: as §1

In assay [5] the target is T5, human OX40, full-length, on cells (human, UniProt P43489 29-277).
T5 construct: whole, on cells; also called hPro1; cell surface human OX40
T5 sequence (looked up): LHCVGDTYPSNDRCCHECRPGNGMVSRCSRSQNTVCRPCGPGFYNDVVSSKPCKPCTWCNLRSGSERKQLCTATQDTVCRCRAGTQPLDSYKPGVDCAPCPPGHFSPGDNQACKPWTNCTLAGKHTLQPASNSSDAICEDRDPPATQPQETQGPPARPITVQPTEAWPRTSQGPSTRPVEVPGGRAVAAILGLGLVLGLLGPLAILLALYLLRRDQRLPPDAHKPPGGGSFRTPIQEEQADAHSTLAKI
Kind of assay: FACS, transfected 293F cells, antibody 1 ug/mL. (A flow cytometer gives signals particle by particle.)
Method: (§2) Binding of antibodies to chimeric OX40 variants was analyzed by flow cytometry. […] Cells were analyzed using flow cytometer.

Assay [6] concerns the target T6, mouse OX40 (mPro1) on transfected 293F cells (mouse, UniProt P47741 20-272).
T6 construct: whole, on cells
T6 sequence (looked up): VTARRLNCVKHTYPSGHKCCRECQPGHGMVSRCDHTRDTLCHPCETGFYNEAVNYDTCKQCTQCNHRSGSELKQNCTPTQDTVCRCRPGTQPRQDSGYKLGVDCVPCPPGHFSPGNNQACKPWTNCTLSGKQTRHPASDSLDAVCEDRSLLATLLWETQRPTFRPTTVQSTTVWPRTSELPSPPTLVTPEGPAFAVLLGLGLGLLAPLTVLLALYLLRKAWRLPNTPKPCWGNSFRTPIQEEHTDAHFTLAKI
Kind of assay: FACS, transfected 293F cells, antibody 1 ug/mL.
Method: as §2

Assay [7] concerns the target T7, rhesus monkey OX40 on transfected 293F cells (rhesus monkey).
T7 construct: whole, on cells
Put plainly: flow cytometry on rhesus monkey OX40 transfected 293F cells.
Method: Testing antibodies were serially diluted in wash buffer (1×PBS/1% BSA) and incubated with cells at 4° C. for 1 h. After washing with 1×PB S/1% BSA, the secondary antibody goat anti-human IgG Fc-PE (Jackson ImmunoResearch Lab) was applied and incubated with cells at 4° C. in the dark for 1 h. The cells were then washed and resuspended in 1×PB S/1% BSA or fixed with 4% paraformaldehyde, and then analyzed by flow cytometry (BD).

Assay [8] addresses T5, human OX40, full-length, on cells. Kind of assay: flow cytometry, CHO-K1 cells expressing human OX40, MESF beads.
Method: (§3) CHO-K 1 cells expressing human OX40 were transferred in to 96-well U-bottom plates (Corning) at a density of 5×10⁴ cells/mL. Testing antibodies were 1:2 serially diluted in wash buffer (1×PBS/1% BSA) and incubated with cells at 4° C. for 1 h. The secondary antibody goat anti-human IgG Fc FITC (3.2 moles FITC per mole IgG, Jackson Immunoresearch Lab) was added and incubated with cells at 4° C. in the dark for half an hour. The cells were then washed once, resuspended in 1×PBS/1% BSA and analyzed by flow cytometry (BD). Fluorescence intensity was converted to bound molecules/cell based on the quantitative beads Quantum™ MESF Kits (Bangs Laboratories, Inc.). The KD value of each antibody was calculated using Graphpad Prism5.
Assay [9] has as its target T1, human OX40 extracellular domain (ECD) …. Put plainly: epitope binning by competition against labelled BMK7 on human OX40; the antibody named in the legend box is titrated; the text describes an ELISA, the axis on the sheet reads MFI. Background: In an ELISA, binding on a coated surface is turned into a signal by an enzyme label.
For assay [10], the target named is T5, human OX40, full-length, on cells. Kind of assay: flow cytometry on human OX40 transfected CHO-K1 cells.
Method: as §3
Assay [11] deals with T1, human OX40 extracellular domain (ECD) …. Put plainly: epitope binning by competition against labelled BMK10 on human OX40; the antibody named in the legend box is titrated; the text describes an ELISA, the axis on the sheet reads MFI.
For assay [12] the target is unchanged. Kind of assay: SPR, Biacore T200, antibody captured, OX40 as analyte. (Surface plasmon resonance follows binding to a sensor surface in real time, without labels.)
Method: Antibodies were characterized for affinity and binding kinetics to OX40 by SPR assay using Biacore T200 (GE). […] Then various concentrations of human or monkey OX40 and running buffer were flowed through the sensor chip at a flow rate of 30 μL/min for an association phase of 180 s, followed by dissociation. The association and dissociation curve was fit by 1:1 Langmuir binding model using the BIAevaluation T200 software.
In assay [13] the target is T5, human OX40, full-length, on cells. Kind of assay: flow cytometry on activated human CD4+ T cells.
Method: Briefly, human OX40-expressing CHO-K1 cells or activated human CD4⁺ T cells were transferred into 96-well U-bottom plates (Corning) at a density of 1×10⁵ cells/well. Testing antibodies were serially diluted in wash buffer (1×PBS/1% BSA) and incubated with cells at 4° C. for 1 h. After washing with 1×PBS/1% BSA, the secondary antibody goat anti-human IgG Fc-PE (Jackson ImmunoResearch Lab) was applied and incubated with cells at 4° C. in the dark for 1 h. The cells were then washed and resuspended in 1×PBS/1% BSA or fixed with 4% paraformaldehyde, and then analyzed by flow cytometry (BD).
For assay [14] the target is unchanged. Put plainly: flow cytometry, MFI against antibody concentration; neither the legend nor paragraph 266 names the cells, target taken as cell-surface human OX40 because the antibodies are anti-OX40.

B1: 1.214.23-u1-IgG1K (antibody, V domains shown)
VH: QVQLQESGPGLVKPSGTLSLTCVVSGGSISNRNWWSWVRQPPGKGLEWIGEIFHSGNTNYNPSLKSRVTISVDKSKNQFSLKVNSVTAADTAVYYCAKSFAVALDSWGQGTLVTVSS
VL: DIQLTQSPSFLSASVGDRVTITCRASQDINSYLAWCQQKPGKAPKLLIYAASSLQSGVPSRFSGTGSGTEFTLTISSLQPEDFATYYCQQLFSYPITFGQGTRLEIK
notes: fully human IgG1, kappa
On to B1, for which the results for the “IC50 (read off the curve)” value in assay [1], in [9] and in [11] were approximately 1 nM, approximately 1 nM and approximately 4 nM, respectively. Moreover, the binding result in assay [2], in assay [3] and in assay [4] was “no binding” in each case. In addition, the MFI in assay [5] worked out at 8320; in assay [6], 49.9. Moreover, the “PE + %” value in assay [5] was determined as 89.3%; in [6], 0.315%. Further, the “EC50 (read off the curve)” value in assay [7] was approximately 3 nM; in assay [10] it was approximately 0.6 nM. For the same molecule, the Kd in assay [8] stood at 0.067 nM; in assay [12], 0.502 nM. The same molecule showed a koff in [12] of 0.000214 s⁻¹. For the same molecule, the kon in assay [12] is 426000 M⁻¹ s⁻¹.

B2: 1.7.10-u1-IgG1K (antibody, V domains shown)
VH: QVHLVESGGGLVKPGGSLRLSCAASGFTFSDYYMSWIRQAPGKGLEWVSYISGSGNTIYYADSVKGRFTISRDNAKNSLYLQMNSLRADDTAVYFCARERGAAGTGWFDPWGQGTLVTVSS
VL: DIQMTQSPSSVSASVGDRVTITCRASQGISSWLAWYQQKPGKAPKLLIYAASSLQGGVPSRFSGSGSGTDFTLTISSLQPEDFATYYCQQVNSFPWTFGQGTKVEIK
notes: fully human IgG1, kappa
Regarding B2, the “IC50 (read off the curve)” value is approximately 3 nM in assay [1] and approximately 4 nM in assay [9]. Besides, the binding result in assay [2], in assay [3] and in [4] was “no binding” throughout. Moreover, the figures for the “EC50 (read off the curve)” value in [13] and in assay [10] were 1 to 2 nM and approximately 1 nM, respectively. The Kd in assay [12] was 1.49 nM. The molecule further displayed a koff in assay [12] of 0.00128 s⁻¹. The molecule further yielded a kon in [12] of 860000 M⁻¹ s⁻¹.

B3: 1.186.19-u1-IgG1K (antibody, V domains shown)
VH: B2 VH with S35G, K43Q, R98K, T105A
VL: B2 VL with Y87H
notes: fully human IgG1, kappa
Regarding B3, the results for the “IC50 (read off the curve)” value in assay [1] and in assay [9] were approximately 3 nM and approximately 4 nM, respectively. For the same molecule, the binding result in assay [2], in assay [3] and in [4] was “no binding” each time. Besides, in assay [13], the “EC50 (read off the curve)” value is approximately 2 nM. In assay [12], this molecule had a Kd of 1.16 nM. This molecule came in with a koff in assay [12] of 0.000451 s⁻¹. The same molecule gave a kon in assay [12] of 390000 M⁻¹ s⁻¹.

B4: 1.62.3-u1-IgG1K (antibody, V domains shown)
VH: QVQLQESGPGLVKPSQTLSLTCTVSGGSISNGGYYWSWIRQHPGKGLEWIGYIYYSGSTYYNPSLKSRVTISVDTSKNQFSLKLSSVTAADTAVYYCARDEWELRGFDYWGQGTLVTVSS
VL: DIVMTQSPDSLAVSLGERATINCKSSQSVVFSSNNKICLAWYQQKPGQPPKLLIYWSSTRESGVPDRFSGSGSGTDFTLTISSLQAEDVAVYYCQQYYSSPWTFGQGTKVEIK
notes: fully human IgG1, kappa
In the case of B4, the “IC50 (read off the curve)” value in assay [1] was approximately 1 nM. Also, the binding result in assay [2] is “no binding”. In [3], the binding result is reported as “no binding”. Also, the binding result in [4] is recorded as “no binding”. In [12], this molecule returned a Kd of 0.461 nM, a koff of 0.000243 s⁻¹ and a kon of 526000 M⁻¹ s⁻¹. Besides, the “EC50 (read off the curve)” value in assay [14] is approximately 0.8 nM.

B5: 1.62.3-u1-3-IgG1K (antibody, V domains shown)
VH: B4 VH with G32A
VL: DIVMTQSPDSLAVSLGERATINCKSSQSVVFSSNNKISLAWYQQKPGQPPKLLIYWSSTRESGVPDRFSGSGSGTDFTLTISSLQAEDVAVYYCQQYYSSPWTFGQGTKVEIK
notes: fully human IgG1, kappa; PTM variant of 1.62.3-u1-IgG1K (G to A in CDRH1, C to S in CDRL1)
With B5, the “EC50 (read off the curve)” value in assay [13] was approximately 0.8 nM. Besides, the “EC50 (read off the curve)” value in [10] is approximately 0.9 nM. Besides, in assay [12], the Kd came out at 2.08 nM, the koff was found to be 0.00145 s⁻¹ and the kon stood at 697000 M⁻¹ s⁻¹. Further, the “EC50 (read off the curve)” value in assay [14] was approximately 2 nM.

By EC50 (read off the curve) is commonly meant the concentration giving half of the maximal effect. One may read the Kd as a measure of binding affinity in units of concentration. One may read the koff as a measure of how fast the partners let go of each other. The kon is the rate constant with which the complex forms.
